Experimental data taken from patent US20160068609A1.

What was measured:
[1] = molecular target: Fc receptors on primary human blood cells: granulocytes (CD66+); experiment: flow cytometry on human granulocytes (CD66+)
[2] = molecular target: Fc receptors on primary human blood cells: NK cells (CD16+CD56+); experiment: flow cytometry on human blood cells (Example 7)
[3] = molecular target: Fc receptors on primary human blood cells: granulocytes (CD66+); experiment: flow cytometry on human blood cells (Example 7)

percent of granulocytes bound [1] [%] | percent of NK cells bound [2] [%] | percent of granulocytes bound [3] [%] | Substance
100 | – | – | Fuc- cetuximab (low fucosylation variant of cetuximab; reduced fucose anti-EGFR antibody according to the invention)
20 | – | – | control antibody having an Fc glycosylation pattern similar to that of Fuc- cetugex (including a similarly low fucosylation)
– | < 5 | < 5 | Fuc+ cetuximab (high fucose anti-EGFR antibody cetuximab produced in mouse myeloma cell line SP2/0)
